# Assay results as given in article PMC13038412, “Hetero-oligomerization drives structural plasticity of eukaryotic peroxiredoxins” (Nature Chemical Biology, 2026).
# T1: His6-Tsa2-EPEA (S. cerevisiae)
# T1 sequence (Q04120 1-196, looked up): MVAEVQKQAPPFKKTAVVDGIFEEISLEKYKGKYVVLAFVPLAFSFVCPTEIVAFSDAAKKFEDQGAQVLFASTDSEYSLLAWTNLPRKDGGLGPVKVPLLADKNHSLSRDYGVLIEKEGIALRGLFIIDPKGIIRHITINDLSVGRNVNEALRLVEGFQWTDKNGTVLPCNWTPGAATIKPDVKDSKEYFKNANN
# T2: His6-Tsa2 (S. cerevisiae, UniProt Q04120 1-196)
# T2 construct: Tsa2, Prx1/AhpC-type peroxiredoxin of Saccharomyces cerevisiae; TSA2 from pET15b/His6-TSA2; calculated mass of His6-Tsa2 23.8 kDa; also called His6-tagged Tsa2; His-Tsa2; source: E. coli SHuffle T7 Express, purified (Ni-NTA) from pET15b; or coexpressed with Strep-Tsa1 / Strep-Tsa1ΔCR from pCOLADuet and tandem purified (Ni-NTA, StrepTactin); not shown: His6, N-terminal, kept
# T2 sequence (looked up): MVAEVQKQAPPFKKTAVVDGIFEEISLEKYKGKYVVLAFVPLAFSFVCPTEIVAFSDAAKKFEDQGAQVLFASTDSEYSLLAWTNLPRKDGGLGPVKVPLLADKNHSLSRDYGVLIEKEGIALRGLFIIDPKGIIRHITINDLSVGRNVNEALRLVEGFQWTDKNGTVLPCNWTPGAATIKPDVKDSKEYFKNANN
# What was measured:
# [1] = biological target: roGFP2-AtBAS1B (A. thaliana); assay: native gel or EMSA; clear native PAGE of lysates from Δtsa1Δtsa2 yeast coexpressing a roGFP2-peroxiredoxin fusion with an empty vector or an unfused peroxiredoxin; imaged for GFP fluorescence
# [2] = biological target: T1, His6-Tsa2-EPEA (S. cerevisiae); assay: negative-stain EM; 0.02 mg/ml purified sample in 10 mM HEPES/NaOH pH 8, 137 mM NaCl, 2 mM KCl; 2% uranyl acetate; hetero-oligomer: the 0.88 mol/mol fraction
# [3] = biological target: T1, His6-Tsa2-EPEA (S. cerevisiae); assay: MALDI-TOF MS of disulfide-linked dimers; purified homo-oligomers and three tandem-purified hetero-oligomer fractions in 0.1% TFA, DHAP matrix, linear positive mode; dimers reducible with DTT
# [4] = biological target: roGFP2-LiPrx1 (L. infantum); assay: native gel or EMSA; clear native PAGE of lysates from Δtsa1Δtsa2 yeast coexpressing a roGFP2-peroxiredoxin fusion with an empty vector or an unfused peroxiredoxin; imaged for GFP fluorescence
# [5] = biological target: the molecule itself; assay: mass photometry; 5 µM purified samples incubated 15 min at 20, 30, 40 or 45 °C, diluted 25x into 10 mM HEPES/NaOH pH 8, 137 mM NaCl, 2 mM KCl; Refeyn OneMP; disulfide-linked oxidation form
# [6] = biological target: the molecule itself; assay: native gel or EMSA; clear native PAGE of lysates from Δtsa1Δtsa2 yeast coexpressing a roGFP2-peroxiredoxin fusion with an empty vector or an unfused peroxiredoxin; imaged for GFP fluorescence
# [7] = biological target: the molecule itself; assay: negative-stain EM; 0.02 mg/ml purified sample in 10 mM HEPES/NaOH pH 8, 137 mM NaCl, 2 mM KCl; 2% uranyl acetate; hetero-oligomer: the 0.88 mol/mol fraction
# [8] = biological target: the molecule itself; assay: MALDI-TOF MS of disulfide-linked dimers; purified homo-oligomers and three tandem-purified hetero-oligomer fractions in 0.1% TFA, DHAP matrix, linear positive mode; dimers reducible with DTT
# [9] = biological target: T2, His6-Tsa2; assay: pull-down; both genes coexpressed from one pCOLADuet plasmid in E. coli; tandem-affinity purification Ni-NTA then StrepTactin, or vice versa; eluates on reducing SDS-PAGE, western blot (semiquantitative, calibrated with individually purified proteins); conditions: partners not purified
# [10] = biological target: the molecule itself; assay: native gel or EMSA; clear native PAGE (3-12%) of yeast lysates, imaged for GFP fluorescence; roGFP2 fusions expressed from the genomic loci; cells untreated or treated with 1 mM H2O2 for the indicated times; lysis with 20 mM NEM
molecule,measurement,setting,value
roGFP2-AtBAS1B (enzyme),stoichiometry N,[1],10
His6-Tsa2-EPEA (enzyme),stoichiometry N,[2],10
same,stoichiometry N,[3],2
roGFP2-LiPrx1 (enzyme),stoichiometry N,[4],10
"His6-GFP-TEV-Tsa2 (enzyme, S. cerevisiae, UniProt Q04120 1-196, looked up, Tsa2 of Saccharomyces cerevisiae, behind His6, GFP and a TEV site; Probably made in E. coli (AhpC contamination was detected); also called Tsa2 with an N-terminal GFP tag; not shown: His6, N-terminal, kept; GFP, N-terminal, kept) MVAEVQKQAPPFKKTAVVDGIFEEISLEKYKGKYVVLAFVPLAFSFVCPTEIVAFSDAAKKFEDQGAQVLFASTDSEYSLLAWTNLPRKDGGLGPVKVPLLADKNHSLSRDYGVLIEKEGIALRGLFIIDPKGIIRHITINDLSVGRNVNEALRLVEGFQWTDKNGTVLPCNWTPGAATIKPDVKDSKEYFKNANN",binding result,[5],binds
"roGFP2-AtBAS1A (enzyme, A. thaliana, UniProt Q96291 66-266, looked up, AtBAS1A, Prx1/AhpC-type peroxiredoxin of the chloroplast stroma of Arabidopsis thaliana; source: Δtsa1Δtsa2 yeast, expressed from a plasmid, in lysate) KAQADDLPLVGNKAPDFEAEAVFDQEFIKVKLSDYIGKKYVILFFYPLDFTFVCPTEITAFSDRHSEFEKLNTEVLGVSVDSVFSHLAWVQTDRKSGGLGDLNYPLISDVTKSISKSFGVLIHDQGIALRGLFIIDKEGVIQHSTINNLGIGRSVDETMRTLQALQYIQENPDEVCPAGWKPGEKSMKPDPKLSKEYFSAI",stoichiometry N,[6],2
"Strep-Tsa1 (enzyme, S. cerevisiae, UniProt P34760 1-196, looked up, Tsa1, Prx1/AhpC-type peroxiredoxin of Saccharomyces cerevisiae; TSA1 subcloned from pET15b/His-TSA1; calculated mass of Strep-Tsa1 22.9 kDa; Dimer-decamer equilibrium; also called Strep-tagged Tsa1; Tsa1 homo-oligomer; source: E. coli SHuffle T7 Express, purified (StrepTactin) from pET45b; or coexpressed with His6-Tsa2 / His6-Tsa2-EPEA from pCOLADuet-1 and tandem purified (Ni-NTA, StrepTactin); …) MVAQVQKQAPTFKKTAVVDGVFDEVSLDKYKGKYVVLAFIPLAFTFVCPTEIIAFSEAAKKFEEQGAQVLFASTDSEYSLLAWTNIPRKEGGLGPINIPLLADTNHSLSRDYGVLIEEEGVALRGLFIIDPKGVIRHITINDLPVGRNVDEALRLVEAFQWTDKNGTVLPCNWTPGAATIKPTVEDSKEYFEAANK",stoichiometry N,[7],10
same,stoichiometry N,[8],2
same,stoichiometry N,[9],~1 Strep-Tsa1 per His6-Tsa2
"roGFP2-Tsa1 (enzyme, S. cerevisiae, UniProt P34760 1-196, looked up, Tsa1 of Saccharomyces cerevisiae, roGFP2-tagged version replacing TSA1 at its endogenous locus; source: S. cerevisiae, gene integrated at the TSA1 genomic locus under the native promoter, in lysate) MVAQVQKQAPTFKKTAVVDGVFDEVSLDKYKGKYVVLAFIPLAFTFVCPTEIIAFSEAAKKFEEQGAQVLFASTDSEYSLLAWTNIPRKEGGLGPINIPLLADTNHSLSRDYGVLIEEEGVALRGLFIIDPKGVIRHITINDLPVGRNVDEALRLVEAFQWTDKNGTVLPCNWTPGAATIKPTVEDSKEYFEAANK",stoichiometry N,[10],2
